# Data from the supplement of paper PMC10567573.
# B1: TRIM35 (parent)
# chain: WEVQVSPTCPVCKDRASPADLRTN
# Variants of: B1
# Experiment: protein stability index of a GFP-peptide fusion (GPS, HEK-293T) (PSI 1-6); higher = more stable
# Conditions: c terminus: a fixed tail appended
# 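Also: lentivirally expressed fusions sorted by FACS into six bins by GFP to DsRed ratio, PSI derived from sequencing read proportions per bin multiplied by bin number.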
row,Variant,protein stability index
1,WEVQVSPTCPVCKDRDSPADLRTN [A16D],2.26
2,WEVQVSPTCPVCKDRASPAGLRTN [D20G],1.85
3,WEVQVSPTCPVCKDRASPAALRTN [D20A],2.02
4,WEVQVSPTCPVCKDRASPALLRTN [D20L],2.15
5,WEVQVSPTCPVCKDRASPAHLRTN [D20H],1.66
6,WEVQVSPTCPVCKDRASPAKLRTN [D20K],2.08
7,WEVQVSPTCPVCKDRASPANLRTN [D20N],2.2
8,WEVQVSPTCPVCKDRASPAELRTN [D20E],2.95
9,WEVQVSPTCPVCKDRASPAYLRTN [D20Y],1.18
10,WEVQVSPTCPVCKDRASPAMLRTN [D20M],1.71
11,WEVQVSPTCPVCKDRASPNDLRTN [A19N],1.91
12,WEVQVSPTCPVCKDRASPMDLRTN [A19M],2.42
13,WEVQVSPTCPVCKDRASPRDLRTN [A19R],1.54
14,WEVQVSPTCPVCKDRASPGDLRTN [A19G],2.24
15,WEVQVSPTCPVCKDRASPIDLRTN [A19I],2.05
16,WEVQVSPTCPVCKDRASPFDLRTN [A19F],2.99
17,WEVQVSPTCPVCKDRASPWDLRTN [A19W],2.3
18,WEVQVSPTCPVCKDRASPYDLRTN [A19Y],1.77
19,WEVQVSPTCPVCKDRASPEDLRTN [A19E],3.35
20,WEVQVSPTCPVCKDRASPADLRLN [T23L],3.09
21,WEVQVSPTCPVCKDRASPADLRWN [T23W],2.02
22,WEVQVSPTCPVCKDRASPADLRCN [T23C],2.13
23,WEVQVSPTCPVCKDRASPADLRPN [T23P],2.08
24,WEVQVSPTCPVCKDRASPADLRSN [T23S],2.26

row,Variant,protein stability index
1,WEVQVSPTCPVCKDRASPADLRYN [T23Y],1.73
2,WEVQVSPTCPVCKDRASPADLRHN [T23H],2.93
3,WEVQVSPTCPVCKDRASPADLRAN [T23A],2.28
4,WEVQVSPTCPVCQDRASPADLRTN [K13Q],2.66
5,WEVQVSPTCPVCYDRASPADLRTN [K13Y],2.05
6,WEVQVSPTCPVCFDRASPADLRTN [K13F],1.94
7,WEVQVSPTCPVCMDRASPADLRTN [K13M],1.94
8,WEVQVSPTCPVCNDRASPADLRTN [K13N],2.39
9,WEVQVSPTCPVCCDRASPADLRTN [K13C],1.72
10,WEVQVSPTCPVCLDRASPADLRTN [K13L],3.25
11,WEVQVSPTCPVCDDRASPADLRTN [K13D],2
12,WEVQVSPTCPVCSDRASPADLRTN [K13S],2.19
13,WEVQVSPRCPVCKDRASPADLRTN [T8R],1.7
14,WEVQVSPWCPVCKDRASPADLRTN [T8W],2.56
15,WEVQVSPECPVCKDRASPADLRTN [T8E],3.07
16,WEVQVSPQCPVCKDRASPADLRTN [T8Q],2.33
17,WEVQVSPSCPVCKDRASPADLRTN [T8S],2.37
18,WEVQVSPFCPVCKDRASPADLRTN [T8F],1.85
19,WEVQVSPDCPVCKDRASPADLRTN [T8D],3.42
20,WEVQVSPVCPVCKDRASPADLRTN [T8V],1.66
21,WEVQVSPLCPVCKDRASPADLRTN [T8L],1.88
22,WEVQVSPTCPVCKDRASPADLRTQ [N24Q],2.81
23,WEVQVSPTCPVCKDRASPADLRTD [N24D],3.14
24,WEVQVSPTCPVCKDRASPADLRTK [N24K],3.12

row,Variant,protein stability index
1,WEVQVSPTCPVCKDRASPADLRTF [N24F],1.55
2,WEVQVSPTCPVCKDRASPADLRTV [N24V],1.19
3,WEVQVSPTCPVCKDRASPADLRTC [N24C],2.43
4,WEVQVSPTCPVCKDRASPADLRTA [N24A],2.29
5,WEVQVSPTCPVCKDRASPADLRTL [N24L],1.71
6,WSVQVSPTCPVCKDRASPADLRTN [E2S],2.58
7,WFVQVSPTCPVCKDRASPADLRTN [E2F],1.72
8,WPVQVSPTCPVCKDRASPADLRTN [E2P],2.12
9,WAVQVSPTCPVCKDRASPADLRTN [E2A],2.48
10,WIVQVSPTCPVCKDRASPADLRTN [E2I],2.45
11,MEVQVSPTCPVCKDRASPADLRTN [W1M],2.75
12,DEVQVSPTCPVCKDRASPADLRTN [W1D],3.25
13,IEVQVSPTCPVCKDRASPADLRTN [W1I],2.08
14,LEVQVSPTCPVCKDRASPADLRTN [W1L],3.13
15,NEVQVSPTCPVCKDRASPADLRTN [W1N],3.23
16,GEVQVSPTCPVCKDRASPADLRTN [W1G],2.92
17,VEVQVSPTCPVCKDRASPADLRTN [W1V],3.4
18,REVQVSPTCPVCKDRASPADLRTN [W1R],3.66
19,WEVQVSPTCPVCKKRASPADLRTN [D14K],2.54
20,WEVQVSPTCPVCKPRASPADLRTN [D14P],1.9
21,WEVQVSPTCPVCKMRASPADLRTN [D14M],1.75
22,WEVQVSPTCPVCKYRASPADLRTN [D14Y],1.62
23,WEVQVSPTCPVCKTRASPADLRTN [D14T],1.83
24,WEVQVSPTCPVCKQRASPADLRTN [D14Q],2.18

row,Variant,protein stability index
1,WEVQVSPTCPVCKARASPADLRTN [D14A],2.49
2,WEVQVSPTCPVCKSRASPADLRTN [D14S],2.5
3,WEVQVSPTCPVCKFRASPADLRTN [D14F],2.81
4,WEVQVSPTCPVCKCRASPADLRTN [D14C],1.03
5,WEVQVSPTCPVQKDRASPADLRTN [C12Q],3.9
6,WEVQVSPTCPVGKDRASPADLRTN [C12G],3.7
7,WEVQVSPTCPVKKDRASPADLRTN [C12K],3.88
8,WEVQVSPTCPVMKDRASPADLRTN [C12M],4.44
9,WEVQVSPTCPVAKDRASPADLRTN [C12A],4.59
10,WEVQVSPTCPVPKDRASPADLRTN [C12P],3.86
11,WEVQVSPTCPVEKDRASPADLRTN [C12E],4.81
12,WEVQVSPTCPVVKDRASPADLRTN [C12V],3.89
13,WEVQVSPTCPVLKDRASPADLRTN [C12L],3.8
14,WEVQVSPTCPVCKDRASPADMRTN [L21M],2.13
15,WEVQVSPTCPVCKDRASPADQRTN [L21Q],2.5
16,WEVQVSPTCPVCKDRASPADGRTN [L21G],2.04
17,WEVQVSPTCPVCKDRASPADVRTN [L21V],3.33
18,WEVQVSPTCPVCKDRASPADWRTN [L21W],2.62
19,WEVQVSPTCPVCKDRASPADCRTN [L21C],3.26
20,WEVQVSPTCPVCKDRASPADRRTN [L21R],2.37
21,WEVQVSPTCPVCKDRASPADTRTN [L21T],2.62
22,WEVQVSPTCPVCKDRASPADFRTN [L21F],2
